PMC3041725

Assays:
[1] = target: VN-Exd fusion protein, expressed in Drosophila embryos (Drosophila melanogaster) (UniProt P40427); experiment: split reporter (BiFC, NanoBiT); competition against split Venus BiFC in living Drosophila embryos: an unfused ('cold') protein co-expressed with the two fusion proteins
[2] = target: VC-Exd fusion protein, expressed in Drosophila embryos (Drosophila melanogaster) (UniProt P40427); experiment: split reporter (BiFC, NanoBiT); split Venus (VN 1-173, VC 155-238) BiFC in living Drosophila embryos; fusion proteins expressed by UAS/Gal4 (abdA-Gal4, en-Gal4, btl-Gal4 and others); embryos kept at 4°C for 28 h before confocal imaging
Chain of VC-Exd fusion protein, expressed in Drosophila embryos (Drosophila melanogaster) (P40427 whole entry, the tested form may be a part): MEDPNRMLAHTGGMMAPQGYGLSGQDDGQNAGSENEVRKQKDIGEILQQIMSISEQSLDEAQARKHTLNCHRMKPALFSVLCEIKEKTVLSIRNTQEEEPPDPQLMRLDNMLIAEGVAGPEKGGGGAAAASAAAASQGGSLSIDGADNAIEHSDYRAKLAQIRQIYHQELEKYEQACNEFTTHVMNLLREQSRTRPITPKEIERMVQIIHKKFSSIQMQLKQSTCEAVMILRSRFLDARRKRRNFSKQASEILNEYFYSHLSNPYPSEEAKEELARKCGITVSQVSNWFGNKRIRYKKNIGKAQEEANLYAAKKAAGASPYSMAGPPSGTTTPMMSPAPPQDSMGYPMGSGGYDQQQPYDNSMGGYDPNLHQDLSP

Chain of VN-AbdA fusion protein, expressed in Drosophila embryos, P29555 1-590 (natural protein; other documents disagree on this pair) (P29555 whole entry, the tested form may be a part): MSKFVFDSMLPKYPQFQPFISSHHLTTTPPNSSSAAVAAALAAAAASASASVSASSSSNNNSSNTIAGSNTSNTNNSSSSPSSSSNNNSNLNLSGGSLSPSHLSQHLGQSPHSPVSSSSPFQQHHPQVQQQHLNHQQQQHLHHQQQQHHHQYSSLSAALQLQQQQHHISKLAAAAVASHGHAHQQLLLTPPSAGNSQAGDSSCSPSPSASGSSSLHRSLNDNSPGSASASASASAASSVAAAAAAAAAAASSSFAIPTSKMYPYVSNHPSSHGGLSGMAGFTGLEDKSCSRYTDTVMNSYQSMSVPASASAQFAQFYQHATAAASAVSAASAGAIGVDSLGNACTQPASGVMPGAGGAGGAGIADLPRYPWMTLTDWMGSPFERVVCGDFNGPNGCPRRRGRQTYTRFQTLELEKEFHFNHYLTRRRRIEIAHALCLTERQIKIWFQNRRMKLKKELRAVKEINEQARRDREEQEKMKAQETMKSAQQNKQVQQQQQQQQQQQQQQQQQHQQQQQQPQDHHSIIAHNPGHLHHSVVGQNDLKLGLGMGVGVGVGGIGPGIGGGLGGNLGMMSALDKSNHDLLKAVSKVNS
Chain of AbdominalA (AbdA), unfused parental wild type protein, expressed in Drosophila embryos, P29555 1-590 (natural protein; other documents disagree on this pair) (P29555 whole entry, the tested form may be a part): as above
Chain of VN-Exd fusion protein, expressed in Drosophila embryos (Drosophila melanogaster) (P40427 whole entry, the tested form may be a part): as the sequence (P40427 whole entry, the tested form may be a part) above

AbdominalA (AbdA), unfused parental wild type protein, expressed in Drosophila embryos, P29555 1-590 (natural protein; other documents disagree on this pair)
percent loss of BiFC between VC-AbdA and VN-Exd [1]: 80%

VN-AbdA fusion protein, expressed in Drosophila embryos, P29555 1-590 (natural protein; other documents disagree on this pair)
fold weaker BiFC signal than VC-AbdA/VN-Exd [2]: 5 fold
